T1: FcgRIIb (human, UniProt P31994 43-217)
T1 construct: extracellular domain; also called FcγRIIb; 2b; not shown: His tag attached to the C terminus
T1 sequence (looked up): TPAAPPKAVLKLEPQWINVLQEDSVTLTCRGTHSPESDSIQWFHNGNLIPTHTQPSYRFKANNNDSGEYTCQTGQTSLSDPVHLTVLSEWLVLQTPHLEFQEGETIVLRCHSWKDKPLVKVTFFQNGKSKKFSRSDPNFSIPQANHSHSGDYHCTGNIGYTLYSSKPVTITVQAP

T2: FcgRIIaR (human, UniProt P12318 34-217)
T2 construct: extracellular domain; also called FcγRIIa R; FcgRIIa type R; not shown: His tag attached to the C terminus
T2 sequence (looked up): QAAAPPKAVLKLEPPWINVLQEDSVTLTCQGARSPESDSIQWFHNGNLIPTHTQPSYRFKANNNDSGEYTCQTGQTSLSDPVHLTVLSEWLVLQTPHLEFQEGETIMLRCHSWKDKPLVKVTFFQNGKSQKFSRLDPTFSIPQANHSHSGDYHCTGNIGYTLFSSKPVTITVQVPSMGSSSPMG

T3: FcgRIIaH (human, UniProt P12318 34-217)
T3 construct: extracellular domain; also called FcγRIIa H; FcgRIIa type H; not shown: His tag attached to the C terminus
T3 sequence (looked up): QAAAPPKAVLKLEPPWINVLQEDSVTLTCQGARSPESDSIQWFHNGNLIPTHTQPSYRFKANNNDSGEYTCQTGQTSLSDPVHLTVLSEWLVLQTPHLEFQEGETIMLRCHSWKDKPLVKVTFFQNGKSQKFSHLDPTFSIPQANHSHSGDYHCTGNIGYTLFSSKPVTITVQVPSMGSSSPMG


Legend:
Test in all cases: SPR (Biacore); KD of H240-Kn033/H240-Hl033/L73-k0 divided by KD of this variant
FcgRIIb = biological target: T1, FcgRIIb
Protocol: (§1) H240-Kn204/H240-Hl211/L73-k0 and H240-Kn205/H240-Hl212/L73-k0 were prepared according to the method of Reference Example 1, by combining H240-Kn204 as one of the H chains and L73-k0 as the L chains with H240-Hl211 as the other H chain, and by combining H240-Kn205 as one of the H chains and L73-k0 as the L chains with H240-Hl212 as the other H chain, and then expressing them. The binding of the prepared variants to FcgRIa, FcgRIIaR, FcgRIIaH, FcgRIIb, FcgRIIIaF, and FcgRIIIaV was measured according to the method of Reference Example 8.
(§2) “fold 2aR”, “fold 2aH”, “fold 2b”, “fold 3aF”, and “fold 3aV” show the relative binding activity of each variant to FcgRIIaR, FcgRIIaH, FcgRIIb, FcgRIIIaF, and FcgRIIIaV, respectively, when the binding activity of H240-Kn033/H240-Hl033/L73-k0, a variant produced by introducing only alterations that promote formation of a heterodimerized antibody into a native IgG1, is defined as 1. Specifically, they are values obtained by dividing the KD value of H240-Kn033/H240-Hl033/L73-k0 for each FcgR by the KD value of an individual variant for each FcgR.
(§3) Analysis of interaction between objective antibody and the FcγR was carried out using Biacore T100 (GE Healthcare), Biacore T200, Biacore A100, and Biacore 4000. HBS-EP+ (GE Healthcare) was used as the running buffer, and the measurement temperature was set to 25° C. Chips produced by immobilizing the antigen peptide by the amine coupling method to a Series S sensor Chip CM5 (GE Healthcare), chips produced by allowing preliminarily biotinylated antigen peptides to interact with and immobilize onto a Series S Sensor Chip SA (certified) (GE Healthcare), chips produced by immobilizing Protein L (ACTIGEN, BioVision) to Series S Sencor Chip CM5 (GE Healthcare), or chips produced by immobilizing Protein A/G (Thermo Scientific) to Series S Sencor Chip CM5 (GE Healthcare) were used. Antibodies of interest were captured onto these chips, and allowed to interact to each FcγR diluted with running buffer.

FcgRIIaR = biological target: T2, FcgRIIaR
Protocol: as §1, §2, §3

FcgRIIIaV = biological target: T4, FcgRIIIaV (human, UniProt P08637 17-208)
T4 construct: extracellular domain; also called FcγRIIIa V; 3aV; not shown: His tag attached to the C terminus
Protocol: as §1, §2, §3

FcgRIIaH = biological target: T3, FcgRIIaH
Protocol: as §1, §2, §3

FcgRIIIaF = biological target: T5, FcgRIIIaF (human, UniProt P08637 17-208)
T5 construct: extracellular domain; also called FcγRIIIa F; 3aF; not shown: His tag attached to the C terminus
Protocol: as §1, §2, §3

T5 sequence (P08637 17-208): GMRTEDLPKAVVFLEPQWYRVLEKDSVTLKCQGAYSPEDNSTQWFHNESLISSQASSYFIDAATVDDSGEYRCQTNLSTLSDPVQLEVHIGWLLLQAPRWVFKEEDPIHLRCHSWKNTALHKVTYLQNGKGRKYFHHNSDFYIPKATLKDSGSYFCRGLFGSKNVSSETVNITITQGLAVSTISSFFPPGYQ
T4 sequence (P08637 17-208 F176V limits assumed): as the sequence (P08637 17-208) above, with F160V counted along it

Row | Binder | fold 2b (FcgRIIb) | fold 2aR (FcgRIIaR) | fold 3aV (FcgRIIIaV) | fold 2aH (FcgRIIaH) | fold 3aF (FcgRIIIaF)
1 | H240-Kn032/H240-Hl032/L73-k0 (antibody, human IgG1, kappa, Anti-epiregulin IgG1, knobs-into-holes; S239D/A330L/I332E in both H chains (comparison antibody)) heavy 1: QDQLVQSGAEVKKPGASVKVSCKASGFNIKDTYIQWVRQAPGQGLEWMGRIDPLRKQTKYREKFEGRVTITADTSTNTAYMELSSLRSEDTAVYYCVRSGREFDYWGQGTLVTVSSASTKGPSVFPLAPSSKSTSGGTAALGCLVKDYFPEPVTVSWNSGALTSGVHTFPAVLQSSGLYSLSSVVTVPSSSLGTQTYICNVNHKPSNTKVDKKVEPKSCDKTHTCPPCPAPELLGGPDVFLFPPKPKDTLMISRTPEVTCVVVDVSHEDPEVKFNWYVDGVEVHNAKTKPREEQYNSTYRVVSVLTVLHQDWLNGKEYKCKVSNKALPLPEEKTISKAKGQPREPQVCTLPPSRDELTKNQVSLWCLVKGFYPSDIAVEWESNGQPENNYKTTPPVLDSDGSFFLYSKLTVDKSRWQQGNVFSCSVMHEALHNHYTQKSLSLSP heavy 2: QDQLVQSGAEVKKPGASVKVSCKASGFNIKDTYIQWVRQAPGQGLEWMGRIDPLRKQTKYREKFEGRVTITADTSTNTAYMELSSLRSEDTAVYYCVRSGREFDYWGQGTLVTVSSASTKGPSVFPLAPSSKSTSGGTAALGCLVKDYFPEPVTVSWNSGALTSGVHTFPAVLQSSGLYSLSSVVTVPSSSLGTQTYICNVNHKPSNTKVDKKVEPKSCDKTHTCPPCPAPELLGGPDVFLFPPKPKDTLMISRTPEVTCVVVDVSHEDPEVKFNWYVDGVEVHNAKTKPREEQYNSTYRVVSVLTVLHQDWLNGKEYKCKVSNKALPLPEEKTISKAKGQPREPQVYTLPPSRCELTKNQVSLSCAVKGFYPSDIAVEWESNGQPENNYKTTPPVLDSDGSFFLVSKLTVDKSRWQQGNVFSCSVMHEALHNHYTQKSLSLSP light: DIQMTQSPSSLSASVGDRVTITCRASQDIHKYIAWYQQKPGQAPRLLIQYTSTLQPGVPSRFSGSGSGTDYTFTISSLQPEDIATYYCLQYEQLRTFGGGTKVEIKRTVAAPSVFIFPPSDEQLKSGTASVVCLLNNFYPREAKVQWKVDNALQSGNSQESVTEQDSKDSTYSLSSTLTLSKADYEKHKVYACEVTHQGLSSPVTKSFNRGEC | 5.3 fold | 2.2 fold | 15.5 fold | 0.8 fold | 31.9 fold
2 | H240-Kn037/H240-Hl036/L73-k0 (antibody, human IgG1, kappa) heavy 1: QDQLVQSGAEVKKPGASVKVSCKASGFNIKDTYIQWVRQAPGQGLEWMGRIDPLRKQTKYREKFEGRVTITADTSTNTAYMELSSLRSEDTAVYYCVRSGREFDYWGQGTLVTVSSASTKGPSVFPLAPSSKSTSGGTAALGCLVKDYFPEPVTVSWNSGALTSGVHTFPAVLQSSGLYSLSSVVTVPSSSLGTQTYICNVNHKPSNTKVDKKVEPKSCDKTHTCPPCPAPELLAGPDVFLFPPKPKDTLMISRTPEVTCVVVDVSHEDPEVKFNWYVDGVEVHNAKTKPREEQYNSTYRVVSVLTVLHQDWLNGKEYKCKVSNKALPAPEEKTISKAKGQPREPQVCTLPPSRDELTKNQVSLWCLVKGFYPSDIAVEWESNGQPENNYKTTPPVLDSDGSFFLYSKLTVDKSRWQQGNVFSCSVMHEALHNHYTQKSLSLSP heavy 2: QDQLVQSGAEVKKPGASVKVSCKASGFNIKDTYIQWVRQAPGQGLEWMGRIDPLRKQTKYREKFEGRVTITADTSTNTAYMELSSLRSEDTAVYYCVRSGREFDYWGQGTLVTVSSASTKGPSVFPLAPSSKSTSGGTAALGCLVKDYFPEPVTVSWNSGALTSGVHTFPAVLQSSGLYSLSSVVTVPSSSLGTQTYICNVNHKPSNTKVDKKVEPKSCDKTHTCPPCPAPELLAGPDVFLFPPKPKDTLMISRTPEVTCVVVDVSHEDPEVKFNWYVDGVEVHNAKTKPREEQYNSTYRVVSVLTVLHQDWLNGKEYKCKVSNKALPAPEEKTISKAKGQPREPQVYTLPPSRCELTKNQVSLSCAVKGFYPSDIAVEWESNGQPENNYKTTPPVLDSDGSFFLVSKLTVDKSRWQQGNVFSCSVMHEALHNHYTQKSLSLSP light: DIQMTQSPSSLSASVGDRVTITCRASQDIHKYIAWYQQKPGQAPRLLIQYTSTLQPGVPSRFSGSGSGTDYTFTISSLQPEDIATYYCLQYEQLRTFGGGTKVEIKRTVAAPSVFIFPPSDEQLKSGTASVVCLLNNFYPREAKVQWKVDNALQSGNSQESVTEQDSKDSTYSLSSTLTLSKADYEKHKVYACEVTHQGLSSPVTKSFNRGEC | 8.7 fold | 25.5 fold | 7.1 fold | 11.3 fold | 13.8 fold
3 | H240-Kn120/H240-Hl068/L73-k0 (antibody, human IgG1, kappa, Anti-epiregulin heterodimerized IgG1, knobs-into-holes) heavy 1: QDQLVQSGAEVKKPGASVKVSCKASGFNIKDTYIQWVRQAPGQGLEWMGRIDPLRKQTKYREKFEGRVTITADTSTNTAYMELSSLRSEDTAVYYCVRSGREFDYWGQGTLVTVSSASTKGPSVFPLAPSSKSTSGGTAALGCLVKDYFPEPVTVSWNSGALTSGVHTFPAVLQSSGLYSLSSVVTVPSSSLGTQTYICNVNHKPSNTKVDKKVEPKSCDKTHTCPPCPAPEYYWGPMVFLFPPKPKDTLMISRTPEVTCVVVDVSDEDPEVKFNWYVDGVEVHNAKTKPREEQYNATYRVVSVLTVLHQDWLNGKEYKCKVSNKDLPAPIEKTISKAKGQPREPQVCTLPPSRDELTKNQVSLWCLVKGFYPSDIAVEWESNGQPENNYKTTPPVLDSDGSFFLYSKLTVDKSRWQQGNVFSCSVMHEALHNHYTQKSLSLSP heavy 2: QDQLVQSGAEVKKPGASVKVSCKASGFNIKDTYIQWVRQAPGQGLEWMGRIDPLRKQTKYREKFEGRVTITADTSTNTAYMELSSLRSEDTAVYYCVRSGREFDYWGQGTLVTVSSASTKGPSVFPLAPSSKSTSGGTAALGCLVKDYFPEPVTVSWNSGALTSGVHTFPAVLQSSGLYSLSSVVTVPSSSLGTQTYICNVNHKPSNTKVDKKVEPKSCDKTHTCPPCPAPELLGGPSVFLFPPKPKDTLMISRTPEVTCVVVDVSHEEPEVKFNWYVDGVEVHNAKTKPREEQYNSTYRVVSVLTVLHQDWLNGKEYKCKVSNDALPKPIEETISKAKGQPREPQVYTLPPSRCELTKNQVSLSCAVKGFYPSDIAVEWESNGQPENNYKTTPPVLDSDGSFFLVSKLTVDKSRWQQGNVFSCSVMHEALHNHYTQKSLSLSP light: DIQMTQSPSSLSASVGDRVTITCRASQDIHKYIAWYQQKPGQAPRLLIQYTSTLQPGVPSRFSGSGSGTDYTFTISSLQPEDIATYYCLQYEQLRTFGGGTKVEIKRTVAAPSVFIFPPSDEQLKSGTASVVCLLNNFYPREAKVQWKVDNALQSGNSQESVTEQDSKDSTYSLSSTLTLSKADYEKHKVYACEVTHQGLSSPVTKSFNRGEC | 22 fold | 32.2 fold | 146 fold | 11.8 fold | 121 fold
